Data reported in patent US20100209400A1, “TAK1-Mediated Regulation of Osteogenesis” (priority 2003, published 2010).

Key:
[1] = test system: SMAD1-mediated transcription; test: SMAD1-SBE CAT reporter assay; type: cell-based, human; conditions: following activation by constitutively active receptors
Procedure: Reporter assays using the GALA DNA binding domain fused to various forms of SMAD proteins were performed as described (Meersseman, G at al, Mech. Dev, 61: 127-140, 1997). Briefly, 420 nanograms (ng) DNA was transfected/well (24 well-plate seeded with 1×10^5 HEK 293T cells) one day prior to transfection. The DNA mix included a plasmid expressing β-galactosidase under the control of the RSV promoter, for normalization purposes and a reporter plasmid encoding firefly luciferase under the control of 5 GAL4 binding sites upstream of a minimal TATA box (pG5 luc, Promega, Mannheim) and combinations of effector plasmids. The DNA content was normalized with empty vector.
Cells were harvested and lysed. β-Galactosidase (β-gal) activity was measured via the luminescent β-galactosidase kit II (Clontech, Palo Alto, Calif.), and luciferase activity via the luciferase assay system (Promega, Mannheim). All results are expressed as luciferase activity normalized with β-gal values (“relative luciferase activities”). Reporter assays with the SMAD1 DNA binding element SBE-9 (GCCG×9) (Kusanagi K et al, Mol Biol Cell 11: 555-565, 2000) cloned into pCAT5 vector (Boshart M et al, Gene 110: 129-130, 1992) were performed similarly except that cells were lysed in CAT lysis buffer. CAT enzyme was measured via CAT ELISA assay and β-gal via chemiluminescent β-gal reporter gene assay (Roche, Mannheim). […]

SMAD proteins = test: Co-immunoprecipitation of TAK1 variants with SMADs from HEK293T cells; type: binding; conditions: SMAD7, R-SMADs 1-3, 5, SMAD4
Procedure: Co-immunoprecipitation were conducted as described (Verschueren K et al, J. Biol. Chem, 274: 20489-20498, 1999). Human embryonic kidney (HEK) 293T cells were plated at 3×10^6 cells/petri dish (55 square centimeters (cm^2)) one day prior to transfection. For transient transfections, 1 μg of Flag-tagged expression plasmid and 2 μg of Myc- or HA-tagged expression plasmids were utilized. DNA content was normalized with empty vector. Transfections were performed with FuGENE6 (Roche, Mannheim). Roughly 36 hours post-transfection cells were dislodged from dishes and harvested by centrifugation. Pellets were shock frozen in liquid nitrogen. […] reactions were performed in lysis buffer. Cell extracts and immunoprecipitates were analyzed by SDS-PAGE and Western blot analysis using the appropriate antibodies.
Toward this end, co-immunoprecipitation with various combinations of wild-type TAK1 (TAK1wt) and R-SMADs, either in a latent form or post-activation by constitutively active BMP type I receptor (ALK6ca, BMPR-IB) or activin type I receptor ALK4ca (ActR-IB), I-SMADs and SMAD4, were conducted. […] TAK1 interaction with R-SMADs was typically stronger in the absence of constitutively active receptors (the exception being SMAD3), which may reflect a reduced affinity for activated, i.e. phosphorylated R-SMADs by TAK1, except with SMAD3.
SMAD proteins only bind TAK1 with an intact or a constitutively active kinase domain. Different TAK1 variants such as TAK1wt, TAK1ca, TAK1dn and two deletions, TAKDN (lacking amino acids 1-300; FIG. 1a) and TAKDC (lacking 301-606; FIG. 1a), respectively, were tested for their ability to bind to R-SMADs (using SMAD1 as a representative) or I-SMAD6 and I-SMAD7.

C3H10T½-BMP2 cells [2] = test: FACS for apoptosis and cell cycle progression; type: cell-based, murine; conditions: CDDP 25 μM; etoposide 10 μM; TAK1 variants stably co-expressed
Procedure: Exponentially growing cells were harvested 48 hours post-seeding or at different stages at and after confluence by trypsinization and fixation with 80% methanol. Cellular DNA content was determined by staining cells with RNAseS/propidium iodide, and measuring fluorescence in a Becton Dickinson FACScan. For each cell population, 10,000 cells were analyzed, and the proportions in G0/G1, G2/M and S-phases were estimated by using Modfit cell cycle analysis software. Information on cell size (e.g. due to differentiation) and complexity could be obtained from forward and side scatter data following evaluation of relevant cell populations.
To determine whether TAK1-mediated effects in the assay systems above resulted from apoptosis, C3H10T½-BMP2 cells co-expressing TAK1 variants were assayed by FACS for apoptosis and cell cycle progression.

C3H10T½-BMP2 cells [3] = test: Histological analysis and alkaline phosphatase staining of C3H10T½-BMP2 cells; type: cell-based, murine
Procedure: Murine C3H10T½ progenitor cells were cultured in high-glucose DMEM containing 10% fetal calf serum, as described (Ahrens Met al, DNA Cell Biol, 12: 871-880, 1993). Cells were stably transfected with expression plasmids encoding wt TAK1, dominant-negative (dn) or constitutively active (ca) TAK1 in pMT7T3-f1 using DOSPER™ according to the manufacturer's protocol (Roche, Mannheim) and a selection plasmid conferring puromycin resistance (pBSpacDp: parental C3H10T½ cells) or G418-resistance (pAG60: BMP2-expressing C3H10T½ cells). Individual clones were picked, propagated, and tested for recombinant expression of TAK1-variants by RT-PCR using a vector-specific and a gene-specific primer. Control cell lines (empty to expression vector) were established at the same time. Cells were plated at a density of 5,000 cells/cm^2. After reaching confluence (arbitrarily termed day 0) ascorbic acid (50 microgram/milliliter (μg/ml)) and b-glycerophosphate (10 millimolar (mM)) were added.
Proteoglycan-secreting chondrocytes were identified by staining with Alcian Blue at pH 2.5 (Alcian Blue 8GS, Roth, Karlsruhe).
Osteoblast formation was evaluated as a measure of TAK1 influence on osteo-/chondrogenic differentiation potential. C3H10T½-BMP2 cells co-expressing TAK1 and its molecular variants were assessed histologically for alkaline phosphatase (ALP) activity (FIG. 8C), which is indicative of osteoblast differentiation.

B1: TAK1dn: dominant-negative TAK1 mutant (K63W), kinase inactive (protein)
chain: MSTASAASSSSSSSASEMIEAPSQVLNFEEIDYKEIEVEEVVGRGAFGVVCKAKWRAKDVAIWQIESESERKAFIVELRQLSRVNHPNIVKLYGACLNPVCLVMEYAEGGSLYNVLHGAEPLPYYTAAHAMSWCLQCSQGVAYLHSMQPKALIHRDLKPPNLLLVAGGTVLKICDFGTACDIQTHMTNNKGSAAWMAPEVFEGSNYSEKCDVFSWGIILWEVITRRKPFDEIGGPAFRIMWAVHNGTRPPLIKNLPKPIESLMTRCWSKDPSQRPSMEEIVKIMTHLMRYFPGADEPLQYPCQYSDEGQSNSATSTGSFMDIASTNTSNKSDTNMEQVPATNDTIKRLESKLLKNQAKQQSESGRLSLGASRGSSVESLPPTSEGKRMSADMSEIEARIVATAGNGQPRRRSIQDLTVTGTEPGQVSSRSSSPSVRMITTSGPTSEKPARSHPWTPDDSTDTNGSDNSIPMAYLTLDHQLQPLAPCPNSKESMAVFEQHCKMAQEYMKVQTEIALLLQRKQELVAELDQDEKDQQNTSRLVQEHKKLLDENKSLSTYYQQCKKQLEVIRSQQQKRQGTS
modifications: left off: small tags and cut ends
[1]
  inhibition of SMAD1 transcription (CAT reporter), in words: minimal inhibition
SMAD proteins
  binding of TAK1 variant to SMAD proteins (co-immunoprecipitation): blocked binding
C3H10T½-BMP2 cells [2]
  apoptosis (subG0-G1 peak): did not induce apoptosis
C3H10T½-BMP2 cells [3]; after confluence
  growth phenotype of C3H10T½-BMP2 cells expressing the TAK1 variant: Multiple layer growth
C3H10T½-BMP2 cells [3]; compared to C3H10T½-BMP2 cells, 10 days post-confluence
  osteoblast-like cell formation / ALP activity: enhanced ALP activity
